In US20230374078A1 one finds trimer yield (PGT145 AlphaLISA signal), factor over the variant of SEQ ID NO: 25 without K655I data, which are given here for 1 substance.

For the test, the target named is variant of repaired and stabilized Du422 construct (HIV161818) with the additional K655I substitution (HIV-1 clade C strain Du422). Nature of the test: assay not named in the sentence (data not shown); trimer yield by AlphaLISA elsewhere.

mAb PGT145 (antibody) yielded a trimer yield (PGT145 AlphaLISA signal), factor over the variant of SEQ ID NO: 25 without K655I of 1.3 fold.
